{
  "source": "paper PMC6205632",
  "about": "(Nature structural & molecular biology, 2017)",
  "proteins": {"B1": {"name": "MDM2 RING homodimer (MDM2 428-C), tag removed (domain or fragment)", "chain": "SSLPLNAIEPCVICQGRPKNGCIVHGKTGHLMACFTCAKKLKKRNKPCPVCRQPIQMIVLTYFP"}},
  "molecular_target": "the molecule itself",
  "assay": "SEC",
  "data": [
    {"protein": "B1", "values": [
      {"measurement": "binding result", "value": "binds"}
    ]}
  ]
}
